What all share (test): ELISA; recombinant human antigen coated at 1 μg/mL on Maxisorp plate overnight; antibodies 2 h at room temperature with shaking; HRP anti-human IgG, TMB, OD 450 nm; EC50 by 4PL fit
Settings in all cases: both partners purified

Assay [1] deals with T1, Recombinant human TSLP (thymic stromal lymphopoietin) (Homo sapiens, UniProt Q969D9).
T1 construct: thymic stromal lymphopoietin, human, recombinant; The reporter and T cell assays used other lots of recombinant human TSLP (R&D Systems for the reporter assay); source: bought: AcroBiosystems

The target of assay [2] is T2, Recombinant human IL-4Rα (IL-4 receptor alpha chain) (Homo sapiens, UniProt P24394).
T2 construct: interleukin-4 receptor subunit alpha, human, recombinant; source: bought: AcroBiosystems

Assay [3] has as its target T3, Recombinant human IL-4Rα/IL-13Rα1 receptor complex (Homo sapiens, UniProt P24394;P78552).
T3 construct: interleukin-4 receptor subunit alpha, human, recombinant; interleukin-13 receptor subunit alpha-1, human, recombinant; source: bought: AcroBiosystems

Here are results for one molecule from article PMC12651572 (Cells, 2025).

B1: IL4R-dupi parental anti-IL-4Rα antibody (dupilumab Fab arms on IgG1 Fc with K409R) (antibody, V domains shown)
VH: EVQLVESGGGLEQPGGSLRLSCAGSGFTFRDYAMTWVRQAPGKGLEWVSSISGSGGNTYYADSVKGRFTISRDNSKNTLYLQMNSLRAEDTAVYYCAKDRLSITIRPRYYGLDVWGQGTTVTVSS
VL: DIVMTQSPLSLPVTPGEPASISCRSSQSLLYSIGYNYLDWYLQKSGQSPQLLIYLGSNRASGVPDRFSGSGSGTDFTLKISRVEAEDVGFYYCMQALQTPYTFGQGTKLEIK
notes: variable region of the dupilumab heavy chain; CH1 and hinge are not described; dupilumab light chain; IgG1; Not the dupilumab analogue with native IgG4 Fc, which was used in the mouse study and the FcRn ELISA; also called IL4R-dupi parental antibody; bivalent IL4R-dupi; source: Expi293F, transiently co-transfected, purified (MabSelect SuRe)
Usually EC50 stands for the concentration that produces a half-maximal response. On to B1, for which the binding result in assay [1] is reported as “no binding”. The half-maximal effective concentration (EC50) in assay [2] was around 0.76 nM; in assay [3], 0.19 nM.
